# Measurements reported in IntAct's records for PubMed 31515488.
# B1: Serpin I2 (Homo sapiens), O75830 (parent)
# chain: MDTIFLWSLLLLFFGSQASRCSAQKNTEFAVDLYQEVSLSHKDNIIFSPLGITLVLEMVQLGAKGKAQQQIRQTLKQQETSAGEEFFVLKSFFSAISEKKQEFTFNLANALYLQEGFTVKEQYLHGNKEFFQSAIKLVDFQDAKACAEMISTWVERKTDGKIKDMFSGEEFGPLTRLVLVNAIYFKGDWKQKFRKEDTQLINFTKKNGSTVKIPMMKALLRTKYGYFSESSLNYQVLELSYKGDEFSLIIILPAEGMDIEEVEKLITAQQILKWLSEMQEEEVEISLPRFKVEQKVDFKDVLYSLNITEIFSGGCDLSGITDSSEVYVSQVTQKVFFEINEDGSEAATSTGIHIPVIMSLAQSQFIANHPFLFIMKHNPTESILFMGRVTNPDTQEIKGRDLDSL
# B2: Beta-taxilin (Homo sapiens), Q8N3L3 (parent)
# chain: MEANHSEQLSAERQSTPPGDSSSLPSHNGLEKEDGQDSPTPVQPPEKEASVHPDISEELNRQLEDIINTYGSAASTAGKEGSARASEQPENAESPDNEDGDCEETTEEAGREPVASGEPPTVKEPVSNKEQKLEKKILKGLGKEANLLMQNLNKLQTPEEKFDFLFKKYAELLDEHRTEQKKLKLLQKKQVQIQKEKDQLQGEHSRAILARSKLESLCRELQRHNKTLKEEALQRAREEEEKRKEITSHFQSTLTDIQGQIEQQSERNMKLCQENTELAEKLKSIIDQYELREEHLDKIFKHRELQQKLVDAKLEQAQEMMKEAEERHKREKEYLLNQAAEWKLQAKVLKEQETVLQAQLTLYSGRFEEFQSTLTKSNEVFATFKQEMDKTTKKMKKLEKDTATWKARFENCNKALLDMIEEKALRAKEYECFVMKIGRLENLCRALQEERNELHKKIRDAEISEKDDQSQHNSDEEPESNVSVDQEIDAEEVNSVQTAVKNLATAFMIIHHPESTPHQSKETQPEIGSSQESADAALKEPEQPPLIPSRDSESPLPPLTPQAEAEGGSDAEPPSKASNSPAGLGAETQCEGLPVGAQADQASWKPEAEASGQAPQAPTEASLQKMEADVPAPACAAEEHVAAMVPACEPSRQPPRAAAEELPVGASAGPQPRNVADTNLEGVD
# partner: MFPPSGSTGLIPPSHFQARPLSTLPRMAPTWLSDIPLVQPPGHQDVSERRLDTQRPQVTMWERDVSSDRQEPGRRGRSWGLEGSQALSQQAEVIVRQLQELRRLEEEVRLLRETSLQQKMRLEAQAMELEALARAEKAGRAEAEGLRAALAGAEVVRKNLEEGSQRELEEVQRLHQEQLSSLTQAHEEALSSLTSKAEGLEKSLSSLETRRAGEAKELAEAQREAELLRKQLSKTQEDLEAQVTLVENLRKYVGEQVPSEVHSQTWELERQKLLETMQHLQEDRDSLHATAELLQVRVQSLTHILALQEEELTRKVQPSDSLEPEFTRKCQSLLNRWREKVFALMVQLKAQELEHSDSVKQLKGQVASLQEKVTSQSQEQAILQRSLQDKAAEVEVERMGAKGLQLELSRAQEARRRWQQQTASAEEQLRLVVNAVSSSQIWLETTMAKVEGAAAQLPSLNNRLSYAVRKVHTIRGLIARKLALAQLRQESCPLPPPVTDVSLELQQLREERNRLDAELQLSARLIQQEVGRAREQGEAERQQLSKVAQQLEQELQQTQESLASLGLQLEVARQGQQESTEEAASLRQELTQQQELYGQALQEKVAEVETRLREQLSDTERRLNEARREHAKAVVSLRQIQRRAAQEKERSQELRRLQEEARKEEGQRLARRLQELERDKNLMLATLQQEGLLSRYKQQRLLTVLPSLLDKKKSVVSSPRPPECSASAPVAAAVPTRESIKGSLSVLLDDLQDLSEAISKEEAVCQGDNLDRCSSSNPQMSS
# B3: WASH complex subunit 3 (Homo sapiens), Q9Y3C0 (parent)
# chain: MDEDGLPLMGSGIDLTKVPAIQQKRTVAFLNQFVVHTVQFLNRFSTVCEEKLADLSLRIQQIETTLNILDAKLSSIPGLDDVTVEVSPLNVTSVTNGAHPEATSEQPQQNSTQDSGLQESEVSAENILTVAKDPRYARYLKMVQVGVPVMAIRNKMISEGLDPDLLERPDAPVPDGESEKTVEESSDSESSFSD
# partner: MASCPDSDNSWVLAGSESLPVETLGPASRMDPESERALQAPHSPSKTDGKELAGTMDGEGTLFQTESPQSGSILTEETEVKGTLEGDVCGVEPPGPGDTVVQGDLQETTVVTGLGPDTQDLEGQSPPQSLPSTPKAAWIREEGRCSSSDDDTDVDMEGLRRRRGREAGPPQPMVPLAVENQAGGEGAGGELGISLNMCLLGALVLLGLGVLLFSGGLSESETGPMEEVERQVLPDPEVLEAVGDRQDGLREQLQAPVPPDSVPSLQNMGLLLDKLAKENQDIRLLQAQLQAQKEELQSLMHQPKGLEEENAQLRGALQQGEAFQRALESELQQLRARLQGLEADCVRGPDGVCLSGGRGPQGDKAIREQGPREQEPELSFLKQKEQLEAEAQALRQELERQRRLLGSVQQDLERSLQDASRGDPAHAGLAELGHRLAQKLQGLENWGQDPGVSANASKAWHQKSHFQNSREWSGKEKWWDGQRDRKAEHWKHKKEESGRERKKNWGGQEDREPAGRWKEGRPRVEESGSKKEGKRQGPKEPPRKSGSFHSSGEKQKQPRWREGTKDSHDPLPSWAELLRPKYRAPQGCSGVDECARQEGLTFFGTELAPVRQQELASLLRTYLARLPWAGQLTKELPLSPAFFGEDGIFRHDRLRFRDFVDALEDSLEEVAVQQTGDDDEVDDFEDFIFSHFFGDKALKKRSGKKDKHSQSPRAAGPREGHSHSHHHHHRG
# B4: Keratin-associated protein 12-1 (Homo sapiens), P59990 (parent)
# chain: MCHTSCSSGCQPACCAPSPCQASCYIPVGCQSSVCVPVSFKPAVCVPVRCQSSVCVPVSCRPVVYAAPSCQSSGCCQPSCTSVLCRPISCSTPSCC
# B5: UPF0462 protein C4orf33 (Homo sapiens), Q8N1A6 (parent)
# chain: MDFKIEHTWDGFPVKHEPVFIRLNPGDRGVMMDISAPFFRDPPAPLGEPGKPFNELWDYEVVEAFFLNDITEQYLEVELCPHGQHLVLLLSGRRNVWKQELPLSFRMSRGETKWEGKAYLPWSYFPPNVTKFNSFAIHGSKDKRSYEALYPVPQHELQQGQKPDFHCLEYFKSFNFNTLLGEEWKQPESDLWLIEKCDI
# partner: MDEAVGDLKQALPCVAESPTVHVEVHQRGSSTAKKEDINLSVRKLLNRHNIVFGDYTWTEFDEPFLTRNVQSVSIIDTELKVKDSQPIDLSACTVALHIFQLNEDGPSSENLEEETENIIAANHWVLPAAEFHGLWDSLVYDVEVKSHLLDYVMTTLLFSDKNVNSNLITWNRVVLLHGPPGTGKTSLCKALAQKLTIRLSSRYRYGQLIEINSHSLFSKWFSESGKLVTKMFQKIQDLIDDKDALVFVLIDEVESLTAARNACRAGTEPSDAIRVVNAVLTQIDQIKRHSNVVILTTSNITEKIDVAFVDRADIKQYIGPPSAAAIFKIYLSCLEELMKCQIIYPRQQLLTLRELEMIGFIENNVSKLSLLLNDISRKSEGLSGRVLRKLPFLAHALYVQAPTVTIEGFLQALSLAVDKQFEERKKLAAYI
# Variants of: B1
# Conditions: with ubql1_human UBQLN1, Q9UMX0
# Sequence of ubql1_human UBQLN1, Q9UMX0 (Q9UMX0 whole entry): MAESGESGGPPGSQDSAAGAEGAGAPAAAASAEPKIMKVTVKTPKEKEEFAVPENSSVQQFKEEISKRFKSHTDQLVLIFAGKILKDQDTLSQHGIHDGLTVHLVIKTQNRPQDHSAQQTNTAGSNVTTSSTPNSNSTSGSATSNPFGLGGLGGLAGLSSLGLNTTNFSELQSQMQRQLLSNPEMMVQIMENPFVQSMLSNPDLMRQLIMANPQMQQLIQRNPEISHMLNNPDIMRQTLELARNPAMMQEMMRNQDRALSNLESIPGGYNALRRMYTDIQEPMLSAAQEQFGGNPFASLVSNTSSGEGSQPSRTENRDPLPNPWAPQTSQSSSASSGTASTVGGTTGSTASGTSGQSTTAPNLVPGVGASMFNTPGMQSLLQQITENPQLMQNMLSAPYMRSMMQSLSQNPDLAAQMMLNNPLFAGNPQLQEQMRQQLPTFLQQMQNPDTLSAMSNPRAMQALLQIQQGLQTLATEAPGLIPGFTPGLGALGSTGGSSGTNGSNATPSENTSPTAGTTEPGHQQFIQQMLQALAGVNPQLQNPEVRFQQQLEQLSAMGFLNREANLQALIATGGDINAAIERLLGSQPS
row,effect of a mutation on the interaction,Variant
1,with no effect,E148G

# Variants of: B1
# Conditions: with bag6_human BAG6, P46379
# Sequence of bag6_human BAG6, P46379 (P46379 whole entry): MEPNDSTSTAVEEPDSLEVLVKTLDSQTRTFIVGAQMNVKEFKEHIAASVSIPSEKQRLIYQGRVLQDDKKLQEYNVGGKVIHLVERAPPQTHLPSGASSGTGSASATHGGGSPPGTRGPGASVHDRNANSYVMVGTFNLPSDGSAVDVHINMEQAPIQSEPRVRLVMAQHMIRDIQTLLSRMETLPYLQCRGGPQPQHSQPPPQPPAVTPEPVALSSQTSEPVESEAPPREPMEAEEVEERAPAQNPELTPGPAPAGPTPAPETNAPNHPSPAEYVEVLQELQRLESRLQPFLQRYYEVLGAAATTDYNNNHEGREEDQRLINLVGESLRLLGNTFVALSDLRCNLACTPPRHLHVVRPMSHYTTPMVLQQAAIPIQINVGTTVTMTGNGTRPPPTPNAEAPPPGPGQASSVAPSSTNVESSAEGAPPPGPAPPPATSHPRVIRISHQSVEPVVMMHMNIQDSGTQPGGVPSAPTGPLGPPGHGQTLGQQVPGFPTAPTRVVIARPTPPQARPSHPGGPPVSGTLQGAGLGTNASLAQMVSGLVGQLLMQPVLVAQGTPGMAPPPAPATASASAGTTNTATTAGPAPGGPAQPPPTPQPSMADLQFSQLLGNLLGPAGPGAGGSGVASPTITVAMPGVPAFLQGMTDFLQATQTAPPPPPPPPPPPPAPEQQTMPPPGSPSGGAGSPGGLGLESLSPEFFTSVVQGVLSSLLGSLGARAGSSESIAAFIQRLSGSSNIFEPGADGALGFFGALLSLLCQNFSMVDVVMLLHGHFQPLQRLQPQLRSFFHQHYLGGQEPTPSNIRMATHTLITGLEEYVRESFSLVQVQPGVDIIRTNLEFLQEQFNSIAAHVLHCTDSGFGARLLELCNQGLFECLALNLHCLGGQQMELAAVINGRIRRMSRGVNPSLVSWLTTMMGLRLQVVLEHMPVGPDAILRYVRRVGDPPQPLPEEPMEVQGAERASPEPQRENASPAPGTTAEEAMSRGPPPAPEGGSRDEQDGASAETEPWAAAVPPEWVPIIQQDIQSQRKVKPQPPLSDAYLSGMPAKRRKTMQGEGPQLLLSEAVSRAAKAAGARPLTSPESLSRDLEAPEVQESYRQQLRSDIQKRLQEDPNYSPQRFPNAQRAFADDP
row,effect of a mutation on the interaction,Variant
1,with no effect,E148G

# Variants of: B2
# Conditions: with cchcr_human CCHCR1, Q8TD31
row,Variant,effect of a mutation on the interaction
1,I527T,with no effect

# Variants of: B3
# Conditions: with pbip1_human PBXIP1, Q96AQ6
row,effect of a mutation on the interaction,Variant
1,with no effect,F44L

# Variants of: B4
# Conditions: with meox2_human MEOX2, P50222
# Sequence of meox2_human MEOX2, P50222 (P50222 whole entry): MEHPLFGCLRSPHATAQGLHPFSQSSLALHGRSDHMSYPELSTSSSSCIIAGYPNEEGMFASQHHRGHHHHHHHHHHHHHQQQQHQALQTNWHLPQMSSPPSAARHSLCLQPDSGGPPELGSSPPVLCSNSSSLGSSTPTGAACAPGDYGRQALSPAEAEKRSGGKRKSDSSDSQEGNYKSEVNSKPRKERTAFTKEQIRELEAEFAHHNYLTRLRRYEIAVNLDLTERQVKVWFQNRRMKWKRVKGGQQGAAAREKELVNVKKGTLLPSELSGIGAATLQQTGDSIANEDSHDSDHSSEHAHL
row,effect of a mutation on the interaction,Variant
1,with no effect,A16T

# Variants of: B5
# Conditions: with pch2_human TRIP13, Q15645
row,effect of a mutation on the interaction,Variant
1,with no effect,H166R
